Data as given in patent US20180022794A1.

Biological target: endogenous active RhoA (RhoA-GTP) of HeLa S3 cells (UniProt P61586)
Experiment: cell-based or functional assay

Chain of endogenous active RhoA (RhoA-GTP) of HeLa S3 cells (P61586 1-190 limits assumed): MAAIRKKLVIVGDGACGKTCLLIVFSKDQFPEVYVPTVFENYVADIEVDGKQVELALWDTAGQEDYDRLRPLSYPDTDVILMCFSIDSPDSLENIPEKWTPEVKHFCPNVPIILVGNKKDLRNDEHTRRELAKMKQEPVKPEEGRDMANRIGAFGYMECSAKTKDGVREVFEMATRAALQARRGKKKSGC

B1: F-H12 (VHH, part only; not given: Fbox domain and myc tag, not shown: small tags and cut ends)
chain, part: VQLQASGGGFVQPGGSLRLSCAASGDGSRIYAMGWFRQAPGKEREFVSAISWEQDWEHYYADSVKGRFTISRDNSKNTVYLQMNSLRAEDTATYYCAAFMTPHRNLTSMYWGQGTQVTVSS
**Q.** Which RhoA-GTP level after 15 min of EGF treatment (GST-RBD pull down) does the source give for B1 here?
**A.** Its RhoA-GTP level after 15 min of EGF treatment (GST-RBD pull down) is 50%.
